Measured values reported in PMC6203356.

Target: CENP-A (endogenous, soluble pre-assembly fraction) (human (endogenous in SW480)) (UniProt P49450)
Assay: co-IP; CENP-A IP (ACA serum) or mock IP from the soluble fraction (PBS, 0.5% NP-40) of SW480 cells treated 72 hours with control or HJURP siRNA; Western blot for the chaperones

Chain of UniProt P49450 (P49450 whole entry): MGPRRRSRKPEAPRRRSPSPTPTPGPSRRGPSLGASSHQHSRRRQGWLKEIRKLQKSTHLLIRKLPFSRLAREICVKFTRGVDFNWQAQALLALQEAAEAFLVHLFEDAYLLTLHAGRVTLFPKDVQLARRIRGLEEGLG

HIRA (endogenous) (from UniProt P54198 1-1017) (natural protein)
fold increase in the amount bound to CENP-A after HJURP knockdown against control siRNA: 2.4 fold
